According to US20240109960A1 (ARGENX, published 2024):
Numbering of substitutions follows the chain as printed. Names may count otherwise.

Experiments:
human IL-9 [1] = target: T1, human IL-9 (human, UniProt P15248 19-144); assay: cell-based or functional assay
human IL-9 [2] = target: T1, human IL-9; assay: cell-based or functional assay; remark: listed apart in the source
human IL-9 [3] = target: T1, human IL-9; assay: BLI (Octet Red 96), mAb captured on anti-hIgG Fc sensor, hIL-9 in solution, 1:1 model
Protocol: (§1) The BLI experiments on the antagonistic antibodies were performed using an Octet Red 96 machine (Sartorius) in kinetics buffer (PBS, 0.1% (w/v) BSA, 0.02% (v/v) Tween20) at 298 K. Anti-hIgG Fc capture (AHC) or anti-mIgG Fc capture sensors (Sartorius) were functionalized with the IL-9 mAbs. […] Non-functionalized tips were used as negative controls in a double referenced setup. After subtracting the control sensorgrams, the resulting data was fitted with a 1:1 binding model. Data analysis was performed using the Data Analysis software 9.0.0.14 (Sartorius) (Table 6).

mouse IL-9 [4] = target: T2, mouse IL-9 (mouse, UniProt P15247 19-144); assay: SPR (Biacore 3000), IL-9 immobilised on CM-5 chip, Fab periplasmic extract injected
T2 construct: Recombinant mouse IL-9 (R&D Systems) in SPR and BLI; baculovirus supernatant in the bioassay; also called mIL-9; mIL9
T2 sequence: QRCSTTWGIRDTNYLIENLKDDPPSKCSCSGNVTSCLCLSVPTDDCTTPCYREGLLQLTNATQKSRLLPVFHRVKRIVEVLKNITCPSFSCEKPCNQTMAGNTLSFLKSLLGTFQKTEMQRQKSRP
Protocol: (§2) The binding of Fabs (periplasmic extract) to their respective mouse or human targets was determined by surface plasmon resonance (SPR) using a Biacore 3000 apparatus (GE Healthcare). IL-9 was immobilized on a carboxymethyl dextran sensor chip (CM-5) using amine coupling in sodium acetate buffer (GE Healthcare). The Fab-containing periplasmic extracts were loaded with a flow rate of […]. The Fab binding and off-rates were measured over a 90 second period (Table 5). […] Furthermore, the ability of the antibodies to compete for human or mouse IL-9 binding to human or rat IL-9R was tested also in a Biacore 3000. For this assay, human or rat IL-9R was coated at high density on a carboxymethyl dextran sensor chip (CM-5). Then, a premade mixture of periplasmic extract (Fab) and IL-9 was injected.

human IL-9 [5] = target: T1, human IL-9; assay: SPR screening of Fab periplasmic extracts
Protocol: as §2

human IL-9 [6] = target: T1, human IL-9; assay: SPR (Biacore 3000), IL-9 immobilised on CM-5 chip, Fab periplasmic extract injected
Protocol: as §2

mouse IL-9 [7] = target: T2, mouse IL-9; assay: cell-based or functional assay
mouse IL-9 [8] = target: T2, mouse IL-9; assay: BLI (Octet Red 96), mAb captured on anti-mIgG Fc sensor, mIL-9 in solution, 1:1 model
Protocol: as §1

T1 sequence (P15248 19-144 limits assumed): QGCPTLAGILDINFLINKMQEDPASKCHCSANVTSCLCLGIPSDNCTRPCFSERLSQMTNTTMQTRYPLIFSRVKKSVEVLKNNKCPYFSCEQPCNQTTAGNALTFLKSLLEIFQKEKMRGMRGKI

B1: anti-hIL-9 antibody 6D3 (full IgG) (antibody, V domains shown)
VH: QVQVQESGPGLVKPSQTLSLTCTVSGGPITTRYYAWSWIRQPPGKGLEWMGLIDYDGSVYYSPSLKSRTSISRDTAKNQFSLQLSSVTPEDTAVYYCARVSAATLFLDYWGQGTQVTVSS
VL: LSYELTQPSALSVTLGQTAKITCQGGSLGSSYAHWYQQKPDQAPILVIYDDDSRPSGIPERFSGSSSGGTATLTISGAQAEDEGDYYCQSYDSSANFVFGGGTKLTVL
notes: also called mAb 6D3; 9MP6D3
Human IL-9 [1]
  Bioassay IC50 [pM]: inhibition of human IL-9-induced Baf3hIL9RA6 cell proliferation: 58.4 pM
Human IL-9 [2]
  IC50, inhibition of human IL-9-induced Baf3hIL9RA6 cell proliferation (hexosaminidase, OD405): 115 pM
Human IL-9 [3]
  Kd: 130 pM

B2: Fab 6D3 (Fab, V domains shown)
VH: B1 VH
VL: B1 VL
notes: it is treated as the same molecule; also called 9MP6D3
Mouse IL-9 [4]
  binding result: no binding

B3: Fab 6F2 (Fab, V domains shown)
VH: EVQLQESGPGLVKPSQTVSLTCTVSGGSITTRYYGWSWIRQPPGKGLEWMGVVYSDGSTSYSPSLESRTSISRDTSKNQFSLQLSFVTPEDTAVYYCARDRAEARLRVGPTGGNDYWGQGTQVTVSS
VL: AQAVVTQEPSLSVSPGGTVTLTCGLSSESVTSSNYPDWYQQTPGQVPRLLIYTTNSRHSGVPSRFSGSISGNKAALTITGAQPEDEADYYCGLYMGSTAVFGGGTKLTVL
notes: Llama-derived Fab (VH-CH1 and VL-CL) from E. coli periplasmic extract; also called 9MP6F2
Human IL-9 [5]
  binding result: binds

B4: anti-hIL-9 antibody 6E2 (full IgG) (antibody, V domains shown)
VH: QVQLVESGGGLVQPGGSLRLSCAASGFTFSSSAMGWVRQAPGKGLEWVSTIVNSITTTYYADSVKGRFTISTDNAKNTLYLQIDSLKSEDTAVYYCGSLAGPYYDYWGQGTQVTVSS
VL: LSSALTQPSTVSVSLGQTARITCQGGSLGSYDAHWYQQKPGQAPVLVIHDNNSRPSGIPERFTGSRSGETATLTISGAQTEDEADYYCQSYDSTSDALVFGGGTQLTVL
notes: also called mAb 6E2; 9MP6E2
Human IL-9 [1]
  Bioassay IC50 [pM]: inhibition of human IL-9-induced Baf3hIL9RA6 cell proliferation: 30.9 pM
Human IL-9 [2]
  IC50, inhibition of human IL-9-induced Baf3hIL9RA6 cell proliferation (hexosaminidase, OD405): 60.9 pM
Human IL-9 [3]
  Kd: 240 pM

B5: Fab 6E2 (Fab, V domains shown)
VH: B4 VH
VL: B4 VL
notes: it is treated as the same molecule; also called 9MP6E2
Mouse IL-9 [4]
  binding result: no binding

B6: Fab 8G3 (Fab, V domains shown)
VH: EVQLVESGPGLVKPSQTLSLTCTVSGDSITTSYYGWGWIRQPPGKGLEWMGVIFSDGGTTYSPSLKSRTSISRDTSKSQFSLQLSSVTPEDTAVYYCARVQYYSGSYSYPTHIYDYWSQGTQVTVSS
VL: AQAVVTQEPSLSVSPGGTVTLTCGLSSGSVTTSNYPGWFQQTPGQAPRTLIYSTSSRHSGVPSRFSGSMSGNKAALTITGAQPEDEADYYCALHMGSSTVFGGGTHLTVL
notes: Llama-derived Fab (VH-CH1 and VL-CL) from E. coli periplasmic extract; also called 9MP8G3
Human IL-9 [5]
  binding result: binds

B7: Fab 8C3 (Fab, V domains shown)
VH: EVQVQESGPGLVKPSQTLSLTCTVSGGSITTSSYGWMWIRQPPGKGLEWMGVIFSDGSTAYNPSLRSRTSISRDTSKNQFSLQLSSVTPEDTAVYYCARSFVRGVVIGELDYGMDYWGKGTLVTVSS
VL: B6 VL
notes: Llama-derived Fab (VH-CH1 and VL-CL) from E. coli periplasmic extract; also called 9MP8C3
Human IL-9 [6]
  koff: 0.00067 s⁻¹
Mouse IL-9 [4]
  binding result: no binding

B8: Fab 6C4 (Fab, V domains shown)
VH: QVQLVESGGGLVQPGGSLRLSCAASGFTFDDYAMSWVRQAPGKGLEWVSAISWNGGSTYHAESMKGRFTISRDNAKNTLYLQMNSLKSEDTAVYYCAKNLYGSSWYEYDYWGQGTQVTVSS
VL: LSYELTQPSAVSTSLGQTARVTCQGDILESYGASWYQQKPGQAPVLVIYGDDSRPSGIPERFSGSSSGGTATLTISGAQAEDEADYYCLSADSSDYNAVFGGGTHLTVL
notes: Llama-derived Fab (VH-CH1 and VL-CL) from E. coli periplasmic extract; also called 9MP6C4
Human IL-9 [6]
  koff: 0.00044 s⁻¹
Mouse IL-9 [4]
  binding result: no binding

B9: anti-hIL-9 antibody 7D6 (full IgG) (antibody, V domains shown)
VH: QLQLVESGPGLVKPSQTLSLTCTVSGGSITTGYYAWSWIRQPPGKGLEWMGFIARDGSTSYSPSLKSRTSISRDTSKNQFSLQLSSVTPEDTAVYYCARAGEGRSWYPGYYYGMDYWGKGTLVTVSS
VL: AQAVVTQEPSLSVSPGGTVTLTCGLSSGSVTSSNYPGWYQQTPGQAPRVLIYNTNSRHSGVPSRYSGFISGNKAALTITGAEPEDEADYYCHLHKGSTGVFGGGTHLTVL
notes: also called 9MP7D6
Human IL-9 [1]
  Bioassay IC50 [pM]: inhibition of human IL-9-induced Baf3hIL9RA6 cell proliferation: 2110 pM
Human IL-9 [2]
  IC50, inhibition of human IL-9-induced Baf3hIL9RA6 cell proliferation (hexosaminidase, OD405): 6300 pM
Human IL-9 [3]
  Kd: 1810 pM

B10: Fab 7D6 (Fab, V domains shown)
VH: B9 VH
VL: B9 VL
notes: it is treated as the same molecule; also called 9MP7D6
Mouse IL-9 [4]
  binding result: no binding

B11: Fab 7A4 (Fab, V domains shown)
VH: B9 VH with Q1E, L2V
VL: B9 VL with G37A, K95E, T108N
notes: Llama-derived Fab (VH-CH1 and VL-CL) from E. coli periplasmic extract; also called 9MP7A4
Human IL-9 [6]
  koff: 0.00013 s⁻¹
Mouse IL-9 [4]
  binding result: no binding

B12: anti-mIL-9 antibody 35D8, new batch (mIgG1-N297A) (antibody, V domains shown)
VH: QVQLVESGPGLVQPSQTLSLTCTVSGGSITTSYYDWSWIRQPPGKGLEWMGAIAYSGNAYYSPSLKSRTSISRDTSKNQFTLQLSSVTPEDTAVYYCAREDHYSDTHGWNDYWGQGTQVTVSS
VL: SSALTQPSAVSVSLGQTARITCQGGSIGNFGATWYQQKPGQAPVLLSLGEHSRPSGIPERFSGSKSGGTATLTISGAQAEDEADYYCQSFDYIGNDHVFGGGTHLTVL
Mouse IL-9 [7]
  Bioassay IC50 [pM]: neutralisation of mouse IL-9 on TS1 cells (hexosaminidase activity): 20.1 pM

B13: anti-mIL-9 antibody 35D8 (full mIgG2a) (antibody, V domains shown)
VH: B12 VH
VL: B12 VL
notes: the BLI values are placed here; also called mouse IL-9 mAb
Mouse IL-9 [8]
  Kd: 110 pM
  koff: 0.000159 s⁻¹
  kon: 1.39e+06 M⁻¹ s⁻¹

B14: Fab 35D8 (Fab, V domains shown)
VH: B12 VH
VL: B12 VL
notes: it is treated as the same molecule
Human IL-9 [6]
  binding result: no binding
Mouse IL-9 [4]
  koff: 0.00047 s⁻¹
